# Experimental data taken from US20250101120A1 (BEIJING SOLOBIO GENETECHNOLOGY, published 2025).
# Residue numbers refer to the chain shown, from its start.
# T1: hFc-hFasL (fusion protein of human Fc fragment and human FasL extracellular region) (human, UniProt P48023 134-281)
# T1 sequence: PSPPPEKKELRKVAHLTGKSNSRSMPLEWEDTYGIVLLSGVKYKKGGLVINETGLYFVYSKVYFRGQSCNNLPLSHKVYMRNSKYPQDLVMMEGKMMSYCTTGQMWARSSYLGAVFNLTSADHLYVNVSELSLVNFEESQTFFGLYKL
# B1: APG101 (Fas fusion protein, Apogenix) (Fc fusion, UniProt P25445 26-172, looked up)
# chain: QVTDINSKGLELRKTVTTVETQNLEGLHHDGQFCHKPCPPGERKARDCTVNGDEPDCVPCQEGKEYTDKAHFSSKCRRCRLCDEGHGLEVEINCTRTQNTKCRCKPNFFCNSTVCEHCDPCTKCEHGIIKECTLTSNTKCKEEGSRS
# notes: also called Fas-Fc fusion protein APG101; FasL antagonist APG101; not shown: Fc part of APG101
# B2: humFL-M88-1 (antibody, human IgG4, V domains shown)
# VH: QVQLVQSGAEVKKPGASVKVSCKGSGYTFTDYTIHWVRQAPGQGLEWIGVISTYQGDASYNQKFKGRATMTVDKSTSTAYMELSSLRSEDTAVYYCARFPDWDYAMDYWGQGTLVTVSS
# VL: EIVMTQSPATLSVSPGERATLSCKASQSVDYDGDSYMNWYQQKPGQPPRLLIYAASNLESGIPARFSGSGSGTEFTLTISSLQSEDFAVYYCQHSRELPYTFGQGTKLEIK
# notes: Humanized FL-M88
# B3: humFL-M88-3 (antibody, human IgG4, V domains shown)
# VH: B2 VH with I48M
# VL: B2 VL
# notes: Humanized FL-M88
# B4: humFL-M88-13 (antibody, human IgG4, V domains shown)
# VH: B2 VH
# VL: B2 VL with H94Q
# notes: Humanized FL-M88
# B5: humFL-M88-15 (antibody, human IgG4, V domains shown)
# VH: B2 VH with I48M
# VL: B2 VL with H94Q
# notes: Humanized FL-M88
# Legend:
# [1] = target: hFc-hFasL (fusion protein of human Fc fragment and human FasL extracellular region) (human) (UniProt P48023); test: cell-based or functional assay
# [2] = target: hFc-hFasL (fusion protein of human Fc fragment and human FasL extracellular region) (human) (UniProt P48023); test: ELISA, hFc-hFasL coated, sample titrated (detection for this reference not separately stated)
# [3] = target: T1, hFc-hFasL (fusion protein of human Fc …); test: cell-based or functional assay
# [4] = target: T1, hFc-hFasL (fusion protein of human Fc …); test: cell-based or functional assay; remark: listed apart in the source
# [5] = target: T1, hFc-hFasL (fusion protein of human Fc …); test: cell-based or functional assay; remark: listed apart in the source
# [6] = target: T1, hFc-hFasL (fusion protein of human Fc …); test: ELISA, hFc-hFasL coated, sample titrated (detection for this reference not separately stated)
# [7] = target: T1, hFc-hFasL (fusion protein of human Fc …); test: cell-based or functional assay; remark: listed apart in the source
# [8] = target: T1, hFc-hFasL (fusion protein of human Fc …); test: cell-based or functional assay; remark: listed apart in the source
# [9] = target: T1, hFc-hFasL (fusion protein of human Fc …); test: ELISA, hFc-hFasL coated, antibody titrated, anti-human kappa-HRP (protocol of Example 3.2)
Molecule,"EC50(nM), FasL antigen-induced NF-κB signaling pathway activation [7] [nM]","HepG2 IC50(nM), FasL antigen-induced cell apoptosis [8] [nM]","Jurkat IC50(nM), FasL antigen-induced cell apoptosis [8] [nM]",EC50 [9] [nM],other results
"MAB126-100 (commercial anti-FasL antibody, RD)",–,–,–,–,"HepG2 IC50(nM), FasL antigen-induced cell apoptosis [1]: 0.074 nM; IC50(nM), FasL antigen-induced apoptosis of HepG2 cells (CellTiter-Glo ATP) [1]: 0.099 nM; Jurkat IC50(nM), FasL antigen-induced cell apoptosis [1]: 0.046 nM; EC50 [2]: 0.948 nM"
B1,–,–,–,–,"IC50(nM), FasL antigen-induced apoptosis of Jurkat cells (CellTiter-Glo ATP) [3]: > 100 nM; EC50(nM), FasL antigen-induced NF-κB signaling pathway activation (SEAP, HepG2-Dual) [4]: 7.23 nM; IC50(nM), FasL antigen-induced apoptosis of HepG2 cells (CellTiter-Glo ATP) [5]: 11.3 nM; EC50 [6]: 23.5 nM"
B2,0.454,0.0125,0.0193,0.265,–
B3,0.444,0.0276,0.0192,0.273,–
B4,0.698,0.0126,0.0243,0.302,–
B5,0.47,0.0143,0.0149,0.301,–
